Measured values: US20240270846A1 (published 2024)
Numbering of substitutions follows the chain as printed. Numbers in names are those of the source.

B1: CE115HA000 V100cE one-arm antibody (antibody, human IgG1, kappa, L234A L235A, N297A, name in Kabat numbering)
heavy: QVQLVESGGGVVQPGRSLRLSCAASGFTFSNAWMHWVRQAPGKGLEWVAQIKAKSNNYATYYAESVKGRFTISRDDSKNSLYLQMNSLKTEDTAVYYCRYVHYGAYYGEDAWGQGTTVTVSSASTKGPSVFPLAPSSKSTSGGTAALGCLVKDYFPEPVTVSWNSGALTSGVHTFPAVLQSSGLYSLSSVVTVPSSSLGTQTYICNVNHKPSNTKVDKKVEPKSCDKTHTCPPCPAPEAAGGPSVFLFPPKPKDTLMISRTPEVTCVVVDVSHEDPEVKFNWYVDGVEVHNAKTKPREEQYASTYRVVSVLTVLHQDWLNGKEYKCKVSNKALPAPIEKTISKAKGQPREPQVYTLPPSRCELTKNQVSLSCAVKGFYPSDIAVEWESNGQPENNYKTTPPVLDSDGSFFLVSKLTVDKSRWQQGNVFSCSVMHEALHNHYTQKSLSLSPDYKDDDDK
chain: EPKSSDKTHTCPPCPAPELLGGPSVFLFPPKPKDTLMISRTPEVTCVVVDVSHEDPEVKFNWYVDGVEVHNAKTKPREEQYNSTYRVVSVLTVLHQDWLNGKEYKCKVSNKALPAPIEKTISKAKGQPREPQVCTLPPSRDELTKNQVSLWCLVKGFYPSDIAVEWESNGQPENNYKTTPPVLDSDGSFFLYSKLTVDKSRWQQGNVFSCSVMHEALHNRYTQKSLSLSP
light: DIVMTQSPLSLPVTPGEPASISCRSSQSLVHSNRNTYLHWYQQKPGQAPRLLIYKVSNRFSGVPDRFSGSGSGTDFTLKISRVEAEDVGVYYCGQGTQVPYTFGQGTKLEIKRTVAAPSVFIFPPSDEQLKSGTASVVCLLNNFYPREAKVQWKVDNALQSGNSQESVTEQDSKDSTYSLSSTLTLSKADYEKHKVYACEVTHQGLSSPVTKSFNRGEC
notes: one-arm antibody
B2: CE115HA000 Y100Q one-arm antibody (antibody, human IgG1, kappa, L234A L235A, N297A, name in Kabat numbering)
heavy: B1 heavy with Y106Q, E109V
chain: B1 chain
light: B1 light
notes: one-arm antibody
B3: CE115HA000 Y100aA one-arm antibody (antibody, human IgG1, kappa, L234A L235A, N297A, name in Kabat numbering)
heavy: B1 heavy with Y107A, E109V
chain: B1 chain
light: B1 light
notes: one-arm antibody
B4: CE115HA000 Y97R one-arm antibody (antibody, human IgG1, kappa, L234A L235A, N297A, name in Kabat numbering)
heavy: B1 heavy with Y103R, E109V
chain: B1 chain
light: B1 light
notes: one-arm antibody
B5: CE115HA000 Y100D one-arm antibody (antibody, human IgG1, kappa, L234A L235A, N297A, name in Kabat numbering)
heavy: B1 heavy with Y106D, E109V
chain: B1 chain
light: B1 light
notes: one-arm antibody
B6: CE115HA000 Y100aF one-arm antibody (antibody, human IgG1, kappa, L234A L235A, N297A, name in Kabat numbering)
heavy: B1 heavy with Y107F, E109V
chain: B1 chain
light: B1 light
notes: one-arm antibody
B7: CE115HA000 Y100aG one-arm antibody (antibody, human IgG1, kappa, L234A L235A, N297A, name in Kabat numbering)
heavy: B1 heavy with Y107G, E109V
chain: B1 chain
light: B1 light
notes: one-arm antibody
B8: CE115HA000 Y100G one-arm antibody (antibody, human IgG1, kappa, L234A L235A, N297A, name in Kabat numbering)
heavy: B1 heavy with Y106G, E109V
chain: B1 chain
light: B1 light
notes: one-arm antibody
B9: CE115HA000 Y97P one-arm antibody (antibody, human IgG1, kappa, L234A L235A, N297A, name in Kabat numbering)
heavy: B1 heavy with Y103P, E109V
chain: B1 chain
light: B1 light
notes: one-arm antibody
B10: CE115HA000 Y100aQ one-arm antibody (antibody, human IgG1, kappa, L234A L235A, N297A, name in Kabat numbering)
heavy: B1 heavy with Y107Q, E109V
chain: B1 chain
light: B1 light
notes: one-arm antibody
B11: CE115HA000 Y100V one-arm antibody (antibody, human IgG1, kappa, L234A L235A, N297A, name in Kabat numbering)
heavy: B1 heavy with Y106V, E109V
chain: B1 chain
light: B1 light
notes: one-arm antibody
B12: CE115HA000 Y100P one-arm antibody (antibody, human IgG1, kappa, L234A L235A, N297A, name in Kabat numbering)
heavy: B1 heavy with Y106P, E109V
chain: B1 chain
light: B1 light
notes: one-arm antibody
B13: CE115HA000 Y97S one-arm antibody (antibody, human IgG1, kappa, L234A L235A, N297A, name in Kabat numbering)
heavy: B1 heavy with Y103S, E109V
chain: B1 chain
light: B1 light
notes: one-arm antibody
B14: CE115HA000 Y100L one-arm antibody (antibody, human IgG1, kappa, L234A L235A, N297A, name in Kabat numbering)
heavy: B1 heavy with Y106L, E109V
chain: B1 chain
light: B1 light
notes: one-arm antibody
B15: CE115HA000 Y100A one-arm antibody (antibody, human IgG1, kappa, L234A L235A, N297A, name in Kabat numbering)
heavy: B1 heavy with Y106A, E109V
chain: B1 chain
light: B1 light
notes: one-arm antibody
B16: CE115HA000 Y100K one-arm antibody (antibody, human IgG1, kappa, L234A L235A, N297A, name in Kabat numbering)
heavy: B1 heavy with Y106K, E109V
chain: B1 chain
light: B1 light
notes: one-arm antibody
B17: CE115HA000 Y100S one-arm antibody (antibody, human IgG1, kappa, L234A L235A, N297A, name in Kabat numbering)
heavy: B1 heavy with Y106S, E109V
chain: B1 chain
light: B1 light
notes: one-arm antibody
B18: CE115HA000 V100cP one-arm antibody (antibody, human IgG1, kappa, L234A L235A, N297A, name in Kabat numbering)
heavy: B1 heavy with E109P
chain: B1 chain
light: B1 light
notes: one-arm antibody
B19: CE115HA000 Y97D one-arm antibody (antibody, human IgG1, kappa, L234A L235A, N297A, name in Kabat numbering)
heavy: B1 heavy with Y103D, E109V
chain: B1 chain
light: B1 light
notes: one-arm antibody
B20: CE115HA000 Y100aL one-arm antibody (antibody, human IgG1, kappa, L234A L235A, N297A, name in Kabat numbering)
heavy: B1 heavy with Y107L, E109V
chain: B1 chain
light: B1 light
notes: one-arm antibody
B21: CE115HA000 Y100aS one-arm antibody (antibody, human IgG1, kappa, L234A L235A, N297A, name in Kabat numbering)
heavy: B1 heavy with Y107S, E109V
chain: B1 chain
light: B1 light
notes: one-arm antibody
B22: CE115HA000 Y100aK one-arm antibody (antibody, human IgG1, kappa, L234A L235A, N297A, name in Kabat numbering)
heavy: B1 heavy with Y107K, E109V
chain: B1 chain
light: B1 light
notes: one-arm antibody
B23: CE115HA000 Y100aD one-arm antibody (antibody, human IgG1, kappa, L234A L235A, N297A, name in Kabat numbering)
heavy: B1 heavy with Y107D, E109V
chain: B1 chain
light: B1 light
notes: one-arm antibody
B24: CE115HA000 Y100W one-arm antibody (antibody, human IgG1, kappa, L234A L235A, N297A, name in Kabat numbering)
heavy: B1 heavy with Y106W, E109V
chain: B1 chain
light: B1 light
notes: one-arm antibody
B25: GPC3 ERY22-B (bispecific antibody, human IgG1, kappa, L234A L235A, N297A)
heavy 1: DIVMTQSPLSLPVTPGEPASISCRSSQSLVHSNRNTYLHWYQQKPGQAPRLLIYKVSNRFSGVPDRFSGSGSGTDFTLKISRVEAEDVGVYYCSQNTHVPPTFGQGTKLEIKSSASTKGPSVFPLAPSSKSTSGGTAALGCLVKDYFPEPVTVSWNSGALTSGVHTFPAVLQSSGLYSLSSVVTVPSSSLGTQTYICNVNHKPSNTKVDKKVEPKSCDKTHTCPPCPAPEAAGGPSVFLFPPKPKDTLMISRTPEVTCVVVDVSHEDPEVKFNWYVDGVEVHNAKTKPREEQYASTYRVVSVLTVLHQDWLNGKEYKCKVSNKALPAPIEKTISKAKGQPREPQVCTLPPSRDELTKNQVSLWCLVKGFYPSDIAVEWESNGQPENNYKTTPPVLDSDGSFFLYSKLTVDKSRWQQGNVFSCSVMHEALHNHYTQKSLSLSPHHHHHHHH
light 1: QVQLVQSGAEVKKPGASVKVSCKASGYTFTDYEMHWIRQPPGQGLEWIGAIDPKTGDTAYSQKFKGRVTLTADKSTSTAYMELSSLTSEDTAVYYCTRFYSYTYWGQGTLVTVSSASVAAPSVFIFPPSDEQLKSGTASVVCLLNNFYPREAKVQWKVDNALQSGNSQESVTEQDSKDSTYSLSSTLTLSKADYEKHKVYACEVTHQGLSSPVTKSFNRGEC
heavy 2: QVQLQQWGAGLLKPSETLSLTCAVYGGSFSGYYWSWIRQSPEKGLEWIGEINHGGYVTYNPSLESRVTISVDTSKNQFSLKLSSVTAADTAVYYCARDYGPGNYDWYFDLWGRGTLVTVSSASTKGPSVFPLAPSSKSTSGGTAALGCLVKDYFPEPVTVSWNSGALTSGVHTFPAVLQSSGLYSLSSVVTVPSSSLGTQTYICNVNHKPSNTKVDKKVEPKSCDKTHTCPPCPAPEAAGGPSVFLFPPKPKDTLMISRTPEVTCVVVDVSHEDPEVKFNWYVDGVEVHNAKTKPREEQYASTYRVVSVLTVLHQDWLNGKEYKCKVSNKALPAPIEKTISKAKGQPREPQVYTLPPSRCELTKNQVSLSCAVKGFYPSDIAVEWESNGQPENNYKTTPPVLDSDGSFFLVSKLTVDKSRWQQGNVFSCSVMHEALHNHYTQKSLSLSP
light 2: not shown

Molecular target: T1, CD3 epsilon homodimer protein (UniProt P07766 23-126)
T1 construct: Construct of the homodimer protein is not described; also called CD3 (CD3 epsilon)
Test: SPR (Biacore T200), CD3 epsilon homodimer on CM4 chip, one-arm antibody as analyte; ratio to unaltered CE115HA000;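 further: surface plasmon resonance run at 25 °C with HBS-EP+ as running buffer, CD3 epsilon homodimer attached by amine coupling, antibody passed over as analyte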

T1 sequence (P07766 23-126): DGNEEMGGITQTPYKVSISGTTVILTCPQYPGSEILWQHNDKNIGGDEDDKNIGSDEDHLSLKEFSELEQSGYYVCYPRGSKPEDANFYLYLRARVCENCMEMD

KD ratio (KD value of CE115HA000/KD value of the altered form) | Binder
1.31 | B1
0.77 | B2
0.66 | B3
23200 | B4
0.63 | B5
0.98 | B6
1.01 | B7
0.97 | B8
12400 | B9
0.51 | B10
0.92 | B11
1.3 | B12
1180 | B13
0.67 | B14
0.92 | B15
0.93 | B16
0.7 | B17
0.97 | B18
64.7 | B19
0.57 | B20
0.59 | B21
0.79 | B22
1.2 | B23
0.96 | B24

Molecular target: human CD137 expressed constitutively on the B cell strain HDLM-2 (human, UniProt Q07011 24-255)
Test: cell-based or functional assay

Sequence of human CD137 expressed constitutively on the B cell strain HDLM-2 (Q07011 24-255): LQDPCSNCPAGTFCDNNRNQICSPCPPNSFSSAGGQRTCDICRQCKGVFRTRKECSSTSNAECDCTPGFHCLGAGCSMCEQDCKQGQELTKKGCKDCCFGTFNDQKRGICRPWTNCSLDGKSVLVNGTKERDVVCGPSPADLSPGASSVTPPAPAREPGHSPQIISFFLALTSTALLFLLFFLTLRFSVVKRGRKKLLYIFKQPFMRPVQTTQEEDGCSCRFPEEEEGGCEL

Agonistic activity compared to B, antibody 6 µg/mL [%] | Agonistic activity compared to B, antibody 30 µg/mL [%] | Agonistic activity compared to Ctrl, antibody 6 µg/mL [%] | Agonistic activity compared to Ctrl, antibody 30 µg/mL [%] | hIL-6 (pg/mL), antibody 6 µg/mL [pg/mL] | hIL-6 (pg/mL), antibody 30 µg/mL [pg/mL] | Binder
100 | 100 | 347 | 380 | 4520 | 4340 | B25
